Test results from patent US20170165338A1.

Target: HLA-A*02 (human)
Assay: UV-exchange b2m ELISA

| peptide exchange yield [%] | Binder |
| --- | --- |
| 20 to 49 | AIVKEIVNI |
| 50 to 75 | ILFHGVFYA |
| 50 to 75 | KLLDPQEFTL |
| 50 to 75 | ALFDSLRHV |
| 50 to 75 | TLLQRLTEV |
| > 75 | YTLDIPVLFGV |
| 50 to 75 | SLFETAWEA |
| 50 to 75 | TLFGYSVVL |
| 20 to 49 | TVFTDHMLTV |
| 50 to 75 | SLPNGKPVSV |
| 50 to 75 | TMDSVLVTV |
| 50 to 75 | SLFSDEFKV |
| 50 to 75 | RLMEENWNA |
| 50 to 75 | ILDHEVPSL |
| 50 to 75 | TITETTVEV |
| > 75 | LLFSRLCGA |
| 50 to 75 | SLADTNSLAVV |
| 20 to 49 | AVGPVHNSV |
| 50 to 75 | VLNPLITAV |
| > 75 | KLMPGTYTL |
| 20 to 49 | ALFENTPKA |
| 20 to 49 | YTLREVDTV |
| 20 to 49 | TVVTRLDEI |
| 50 to 75 | YLLPLLPAL |
| 20 to 49 | AMIEEVFEA |

| peptide exchange yield [%] | Binder |
| --- | --- |
| 50 to 75 | ALQEELTEL |
| 50 to 75 | SISDNVWEV |
| 50 to 75 | VQLDSIEDLEV |
| 50 to 75 | ILAPFSVDL |
| 50 to 75 | GIAGSLKTV |
| 20 to 49 | SLFPDSLIV |
| 20 to 49 | SQIPAQPSV |
| 50 to 75 | FLVDGSYSI |
| 50 to 75 | SLSNRLYYL |
| 50 to 75 | LLLGDSALYL |
| 50 to 75 | FLTAINYLL |
| 50 to 75 | ALSPSYLTV |
| 50 to 75 | VLHSKFWVV |
| 20 to 49 | ALNPELVQA |
| 20 to 49 | ALMAMLVYV |
| 20 to 49 | QVIEDSTGV |
| 50 to 75 | GIVAHIQEV |
| 20 to 49 | SVVPDVRSV |
| > 75 | GLLPLLHRA |
| 50 to 75 | FLHDEKEGIYI |
| 50 to 75 | YIKTELISV |
| > 75 | KLEENGDLYL |
| 50 to 75 | KMVGLVVAI |
| 20 to 49 | SQFPLPLAV |
| 50 to 75 | FLGPRIIGL |

| peptide exchange yield [%] | Binder |
| --- | --- |
| 50 to 75 | FLLPFSTVYL |
| 50 to 75 | ILLDLTDNRL |
| > 75 | ILAKDLFEI |
| 50 to 75 | ALLERGELFV |
| 20 to 49 | KLYEADFVL |
| 50 to 75 | VLIDPQWVLTA |
| 50 to 75 | GLSQITNQL |
| 50 to 75 | ALNIATHVL |
| 50 to 75 | AVIKFLELL |
| 50 to 75 | TLDEKVAEL |
| 50 to 75 | KLIFSVEAV |
| 50 to 75 | SLATKIVEA |
| 50 to 75 | AIQDEIRSV |
| 50 to 75 | FLAVGLVDV |
| > 75 | LLYPEPWSV |
| 50 to 75 | HLLEGSVGV |
| 20 to 49 | FVDPNTQEKV |
| > 75 | FLLATEVVTV |
| < 20 | LLDSVSRL |
| 20 to 49 | VTFKEYVTV |
| 50 to 75 | YLDLSHNQL |
| 50 to 75 | NALDKVLSV |
| 50 to 75 | ALFAPLVHL |
| 50 to 75 | TLIDEQDIPLV |
| 50 to 75 | YLLDPSITL |
